Patent US20250243286A1 (SIXPEAKS BIO, published 2025)
Residue numbers refer to the chain shown, from its start. Read-outs that look alike come from different tables or passages of the source. Blank lines part the entries; values can stand above or below the binder they belong to.

How the values were obtained:
human ActRIIB [1] = target: T1, human ActRIIB (human, UniProt Q13705 19-137, limits assumed); experiment: MSD-SET
T1 construct: antigen in MSD-SET; also called ACVR2B; ActR2B
T1 sequence: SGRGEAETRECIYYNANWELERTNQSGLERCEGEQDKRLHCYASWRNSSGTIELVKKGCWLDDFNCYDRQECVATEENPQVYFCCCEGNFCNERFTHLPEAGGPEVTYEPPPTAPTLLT

mouse ActRIIA = mouse ActRIIA (mouse, UniProt P27038 20-135, limits assumed); experiment: MSD-SET
Chain of mouse ActRIIA (P27038 20-135 limits assumed): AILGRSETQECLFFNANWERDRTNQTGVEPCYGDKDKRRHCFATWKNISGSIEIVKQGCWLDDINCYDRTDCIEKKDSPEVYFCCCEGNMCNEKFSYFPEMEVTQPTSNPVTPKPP

Pig ActRIIA = Pig ActRIIA (pig, UniProt F1S0H6 20-135); experiment: MSD-SET
human ActRIIB [2] = target: T1, human ActRIIB; experiment: MSD-SET, preliminary
human ActRIIB [3] = target: T1, human ActRIIB; experiment: MSD-SET; remark: listed apart in the source
human ActRIIB [4] = target: T1, human ActRIIB; experiment: MSD-SET; remark: listed apart in the source
human ActRIIA [5] = target: T2, human ActRIIA (human, UniProt P27037 20-135, limits assumed); experiment: MSD-SET
T2 construct: antigen in MSD-SET; also called ACVR2A; ActR2A
T2 sequence (P27037 20-135 limits assumed): as the sequence (P27038 20-135 limits assumed) above, with R20K, I73V counted along it

human ActRIIA [6] = target: T2, human ActRIIA; experiment: MSD-SET; remark: listed apart in the source
[7] = target: T3, ActRIIA and ActRIIB (on TGFB/SMAD SBE Reporter HEK293 cells) (human)
human ActRIIB [8] = target: T1, human ActRIIB; experiment: MSD-SET; remark: listed apart in the source
human ActRIIA [9] = target: T2, human ActRIIA; experiment: MSD-SET; remark: listed apart in the source
[10] = target: T3, ActRIIA and ActRIIB (on TGFB/SMAD SBE …); remark: listed apart in the source
[11] = target: T3, ActRIIA and ActRIIB (on TGFB/SMAD SBE …); experiment: cell-based or functional assay
[12] = target: T3, ActRIIA and ActRIIB (on TGFB/SMAD SBE …); experiment: cell-based or functional assay; remark: listed apart in the source
human ActRIIB [13] = target: T1, human ActRIIB; experiment: MSD-SET; Fab, not IgG
human ActRIIB [14] = target: T1, human ActRIIB; experiment: MSD-SET; remark: listed apart in the source
[15] = target: T3, ActRIIA and ActRIIB (on TGFB/SMAD SBE …); experiment: cell-based or functional assay; remark: listed apart in the source
human ActRIIB [16] = target: T1, human ActRIIB; experiment: MSD-SET; human ActRIIB; full-length IgG (Table 4B)
human ActRIIA [17] = target: T2, human ActRIIA; experiment: MSD-SET; remark: listed apart in the source
human ActRIIB [18] = target: T1, human ActRIIB; experiment: MSD-SET; human ActRIIB; full antibody, separate cross-reactivity study (Table 6A)
[19] = target: T3, ActRIIA and ActRIIB (on TGFB/SMAD SBE …); experiment: cell-based or functional assay; remark: listed apart in the source
human ActRIIA [20] = target: T2, human ActRIIA; experiment: MSD-SET; remark: listed apart in the source
human ActRIIB [21] = target: T1, human ActRIIB; experiment: MSD-SET, Fab KD over IgG KD

B1: Ofaschlupfer Fab (Fab, V domains shown)
VH: QVQLVQSGAEVKKPGSSVKVSCKASGYTFTSSYINWVRQAPGQGLEWMGTINAVSGSTSYAQKFQGRVTITADTSTSTAYMELSSLRSEDTAVYYCARGGWFDYWGQGTLVTVSS
VL: QSALTQPRSVSGSPGQSVTISCTGTSSDVGSKNYVNWYQQHPGKAPKLMIYGVSKRESGVPDRFSGSKSGNTASLTISGLQAEDEADYYCGTFAGGKYYGVFGGGTKLTVL
notes: Fab
- Kd (human ActRIIB [1]): 2 pM
- Kd (mouse ActRIIA): 18 pM
- Kd (Pig ActRIIA): 10 pM
- Kd (human ActRIIB [2]): 25.3 pM
- Kd (human ActRIIB [3]): 3.3 pM

B5: Antibody Hefaknöpfla (antibody, V domains shown)
VH: B1 VH with S16A, I70M, A72R, T76I, S85R, E89D
VL: B1 VL with R8A, V18I, P61S, D62N
notes: full-length IgG
- Kd (human ActRIIB [16]): 5 pM
- Kd (human ActRIIA [5]): 15 pM
- Kd (human ActRIIA [17]): 12.3 pM
- Kd (human ActRIIB [18]): 4.3 pM
- IC50 (read off the curve); Myostatin-stimulated SMAD reporter gene assay [7]: 300 pM
- IC50 [nM] (assay not given) [19]: 0.011 nM
- IC50 fold difference to bimagrumab (assay not given) [19]: 27 fold
- IC90 [nM] (assay not given) [19]: 1.6 nM
- IC90 fold difference to bimagrumab (assay not given) [19]: 4.11 fold
- Kd (human ActRIIA [9]): 15 pM
- IC50 (read off the curve); Activin-stimulated SMAD reporter gene assay [10]: 200 pM
- IC50, Activin SMAD RGA [11]: 139 pM
- IC50, Myostatin SMAD RGA [11]: 211 pM
- IC90, Activin SMAD RGA [11]: 2160 pM
- IC90, Myostatin SMAD RGA [11]: 5370 pM
- Kd (human ActRIIA [20]): 15 pM
- IC50, Activin SMAD RGA [12]: 130 pM
- IC50, Myostatin SMAD RGA [12]: 260 pM

B6: Antibody Duuranad (antibody, V domains shown)
VH: B1 VH with S16A, I70M, A72R, T76I, S85R, E89D
VL: B1 VL with R8A, V18I, K32F, Y51R, P61S, D62N, K97A
notes: full-length IgG
- Kd (human ActRIIB [16]): 5 pM
- Kd (human ActRIIA [5]): 9 pM
- Kd (human ActRIIA [17]): 21.2 pM
- Kd (human ActRIIB [18]): 5.4 pM
- Kd (human ActRIIA [9]): 9 pM
- IC50, Activin SMAD RGA [11]: 272 pM
- IC50, Myostatin SMAD RGA [11]: 432 pM
- IC90, Activin SMAD RGA [11]: 2220 pM
- IC90, Myostatin SMAD RGA [11]: 4450 pM
- IC50, Activin SMAD RGA [12]: 300 pM
- IC50, Myostatin SMAD RGA [12]: 390 pM

Next, values leading:

- Kd (human ActRIIB [4]): 5 pM
- Kd (human ActRIIA [5]): 42 pM
- Fold Difference to bimagrumab (human ActRIIA [6]): 4 fold
- Kd (human ActRIIA [6]): 41 pM
- IC50 (read off the curve); Myostatin-stimulated SMAD reporter gene assay [7]: 200 pM
- Kd (human ActRIIB [8]): 5 pM
- Kd (human ActRIIA [9]): 41 pM
- IC50 (read off the curve); Activin-stimulated SMAD reporter gene assay [10]: 200 pM
- IC50, Activin SMAD RGA [11]: 58.2 pM
- IC50, Myostatin SMAD RGA [11]: 213 pM
- IC50 [nM] (assay not given) [11]: 0.0209 nM
- IC50 fold difference to bimagrumab (assay not given) [11]: 25.6 fold
- IC90, Activin SMAD RGA [11]: 1580 pM
- IC90, Myostatin SMAD RGA [11]: 9650 pM
- IC90 [nM] (assay not given) [11]: 1.27 nM
- IC90 fold difference to bimagrumab (assay not given) [11]: 6.33 fold
- IC50, Activin SMAD RGA [12]: 90 pM
- IC50, Myostatin SMAD RGA [12]: 150 pM
B2: Antibody Rippla (antibody, V domains shown)
VH: B1 VH with K12R, S16A, A53P, I70M, A72R, T76I, S85R, E89D
VL: B1 VL with R8A, V18I, K32Y, Y34R, P61S, D62N, K97R
notes: full-length IgG; also called Ripp1a

- Kd (human ActRIIA [5]): 47 pM
- Kd (human ActRIIB [13]): 360 pM
- IC50, Activin SMAD RGA [12]: 6190 pM
- IC50, Myostatin SMAD RGA [12]: 7850 pM
- IC50 fold difference (Fab:IgG), Activin SMAD RGA [12]: 20.5 fold
- IC50 fold difference (Fab:IgG), Myostatin SMAD RGA [12]: 20.2 fold
B3: Duuranad Fab (Fab, V domains shown)
VH: B1 VH with S16A, I70M, A72R, T76I, S85R, E89D
VL: B1 VL with R8A, V18I, K32F, Y51R, P61S, D62N, K97A
notes: Fab

- Kd (human ActRIIB [14]): 2.9 pM
- Kd (human ActRIIB [2]): 27.7 pM
- IC50, Myostatin SMAD RGA [11]: 700 pM
- IC50 fold difference to bimagrumab, Myostatin SMAD RGA [11]: 0.8 fold
- IC90, Activin SMAD RGA [11]: 2270 pM
- IC90, Myostatin SMAD RGA [11]: 14400 pM
- IC90 fold difference to bimagrumab, Activin SMAD RGA [11]: 4.1 fold
- IC90 fold difference to bimagrumab, Myostatin SMAD RGA [11]: 0.9 fold
- IC95, Activin SMAD RGA [11]: 4970 pM
- IC95, Myostatin SMAD RGA [11]: 55200 pM
- IC95 fold difference to bimagrumab, Activin SMAD RGA [11]: 7.6 fold
- IC95 fold difference to bimagrumab, Myostatin SMAD RGA [11]: 1 fold
- IC99, Activin SMAD RGA [11]: 28.1 nM
- IC99, Myostatin SMAD RGA [11]: 1240 nM
- IC99 fold difference to bimagrumab, Activin SMAD RGA [11]: 29.6 fold
- IC99 fold difference to bimagrumab, Myostatin SMAD RGA [11]: 2.2 fold
- Kd (human ActRIIB [3]): 2.9 pM
- IC50, Activin SMAD RGA [15]: 320 pM
- IC50 fold difference to bimagrumab, Activin SMAD RGA [15]: 1 fold
- IC90, Activin SMAD RGA [15]: 3020 pM
- IC90 fold difference to bimagrumab, Activin SMAD RGA [15]: 2.1 fold
- IC95, Activin SMAD RGA [15]: 7070 pM
- IC95 fold difference to bimagrumab, Activin SMAD RGA [15]: 21.8 fold
- IC99, Activin SMAD RGA [15]: 47.8 nM
- IC99 fold difference to bimagrumab, Activin SMAD RGA [15]: 147 fold
B4: Antibody Ofaschlupfer (antibody, V domains shown)
VH: B1 VH
VL: B1 VL
notes: full-length IgG

- Kd (human ActRIIB [13]): 1570 pM
- Fold difference (Fab:IgG) (human ActRIIB [21]): 369 fold
- IC50, Activin SMAD RGA [12]: 27900 pM
- IC50, Myostatin SMAD RGA [12]: 64600 pM
- IC50 fold difference (Fab:IgG), Activin SMAD RGA [12]: 196 fold
- IC50 fold difference (Fab:IgG), Myostatin SMAD RGA [12]: 199 fold
B7: Riaba Fab (Fab, V domains shown)
VH: B1 VH with S16A, I70M, A72R, T76I, S85R, E89D
VL: B1 VL with R8A, V18I, K32Y, E57D, P61S, D62N
notes: Fab
